Drawing on patent publication US20240376163, this text covers fold increase of binding affinity (phosphorylated vs unphosphorylated CABIN1 peptide) for one substance.

This series relates to T1, biotin-p-CABIN1-L-1 (phosphorylated CABIN1-L-1).
T1 sequence: AAAMAGFPPEITVTPPTP
In words: SPR (Biacore T200), biotin-labeled peptide captured on SA chip, His-tagged CNA at 1.25, 2.5, 5 and 10 nM, 25° C.

“His-tagged CNA (purified; isoform not stated)” came in with a fold increase of binding affinity (phosphorylated vs unphosphorylated CABIN1 peptide) of 3 fold.
